Measurements: US20220289857A1 (Kyowa Kirin, published 2022)
Positions count from the first letter of the chain named. Numbers in names are those of the source. Where “and” joins values, the source holds several entries; their conditions need not be identical. Identical values can stand only once.

B1: KO41c mouse monoclonal antibody (hybridoma-derived) (antibody, V domains shown)
VH: EVQLQQSGPELVKPGASVKMSCKASGYTFTDYNMHWVKQSHGKSLEWIGYINPNNGGTNYNQKFKGKATLTVNKSSRSAYMEFRSLTSEDSAVYYCASSGWFTYWGQGTLVTVSA
VL: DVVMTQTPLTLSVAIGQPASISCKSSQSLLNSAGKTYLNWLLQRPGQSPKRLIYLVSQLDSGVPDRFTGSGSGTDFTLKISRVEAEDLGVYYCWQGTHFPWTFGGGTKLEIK
notes: Hybridoma supernatant or purified antibody from an Fn14 knockout mouse; native mouse IgG, kappa
B2: R35B9 (A451/A452) antibody (antibody, V domains shown)
VH: B1 VH with T28I, T30Q, Y50S, N54R, G57W
VL: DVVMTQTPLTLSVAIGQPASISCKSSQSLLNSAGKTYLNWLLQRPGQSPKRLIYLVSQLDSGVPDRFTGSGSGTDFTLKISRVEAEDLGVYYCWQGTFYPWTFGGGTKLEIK
B3: R35B9(A56) (A486/A452) antibody (antibody, V domains shown)
VH: B1 VH with T28I, T30Q, Y50S, N54R, G56A, G57W
VL: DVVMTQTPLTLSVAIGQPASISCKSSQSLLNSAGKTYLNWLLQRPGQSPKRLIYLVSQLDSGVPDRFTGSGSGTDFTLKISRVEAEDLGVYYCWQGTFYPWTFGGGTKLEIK
notes: G56A in HCDR2 removes the NG deamidation site; Constant regions not clear
B4: CRCBT-06-002 as mouse IgG1(D265A), kappa antibody (antibody, V domains shown)
VH: EVKLQQSGGGLVQPGGSMKLSCVASGFTFSYYWMNWVRQSPEQGLEWIAEIRLQSNDYPTHYAESVKGRFTISRDDSKNSVYLQMNNLRPEDTGIYYCACRYADYFDHWGQGTTLTVSS
VL: DTVLTQSPASLVVSLGQRATISCRASQSVSTSDYSYIHWYQQKPGQPPKFLIKYASNRDSGVPARFSGSGSGTDFTLNIHPVEEDDTAIYYCQHSWEIPPTFGAGTKLELQR
B5: A437/A290 mouse IgG1(D265A), kappa antibody (antibody, V domains shown)
VH: B1 VH with T28I, T30Q, N54R, G57W
VL: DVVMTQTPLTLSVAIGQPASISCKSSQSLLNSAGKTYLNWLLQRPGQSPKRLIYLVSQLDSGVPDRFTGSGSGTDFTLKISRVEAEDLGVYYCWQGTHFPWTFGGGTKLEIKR
B6: A448/A439 mouse IgG1(D265A), kappa antibody (antibody, V domains shown)
VH: B1 VH with T28I, T30Q, N54R
VL: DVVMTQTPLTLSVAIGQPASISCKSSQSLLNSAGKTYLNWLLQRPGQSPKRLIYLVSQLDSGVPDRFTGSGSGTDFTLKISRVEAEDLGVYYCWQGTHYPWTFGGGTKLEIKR
B7: A448/A290 mouse IgG1(D265A), kappa antibody (antibody, V domains shown)
VH: B1 VH with T28I, T30Q, N54R
VL: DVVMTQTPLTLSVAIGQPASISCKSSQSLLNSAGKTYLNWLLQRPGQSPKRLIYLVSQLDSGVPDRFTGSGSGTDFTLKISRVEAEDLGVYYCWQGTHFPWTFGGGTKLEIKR
B8: A553/A472 humanized IgG4 Nullbody, kappa antibody (antibody, V domains shown)
VH: QVQLVQSGAEVKKPGASVKVSCKASGYIFQDYNMHWVKQAPGQGLEWIGSINPRNAWTNYNQKFKGKATITADTSTSTAYMELSSLRSEDTAVYYCASSGWFTYWGQGTLVTVSS
VL: DVVMTQSPLSLPVTIGQPASISCKSSQSLLNSAGKTYLNWLLQRPGQSPKRLIYLVSQLDSGVPDRFSGSGSGTDFTLKISRVEAEDVGVYYCWQGTFYPWTFGGGTKVEIKR
notes: also called hzR35B9(A56)-HV7c / hzR35B9-LV4
B9: A641/A468 humanized IgG4 Nullbody, kappa antibody (antibody)
heavy: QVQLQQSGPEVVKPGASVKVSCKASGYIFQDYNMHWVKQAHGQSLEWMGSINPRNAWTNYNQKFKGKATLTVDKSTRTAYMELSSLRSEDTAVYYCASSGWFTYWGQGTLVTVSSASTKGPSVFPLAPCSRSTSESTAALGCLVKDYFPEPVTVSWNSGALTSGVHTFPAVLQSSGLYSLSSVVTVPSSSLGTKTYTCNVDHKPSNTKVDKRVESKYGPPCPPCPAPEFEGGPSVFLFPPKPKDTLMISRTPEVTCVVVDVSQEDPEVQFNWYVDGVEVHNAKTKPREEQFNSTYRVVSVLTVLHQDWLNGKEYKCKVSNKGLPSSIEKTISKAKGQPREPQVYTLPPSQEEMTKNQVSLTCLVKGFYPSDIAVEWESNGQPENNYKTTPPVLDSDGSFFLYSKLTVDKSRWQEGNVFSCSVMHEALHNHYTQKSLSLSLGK
light: DVVMTQSPLSLPVTLGQPASISCKSSQSLLNSAGKTYLNWLQQRPGQSPRRLIYLVSQLDSGVPDRFSGSGSGTDFTLKISRVEAEDVGVYYCWQGTFYPWTFGGGTKVEIKRTVAAPSVFIFPPSDEQLKSGTASVVCLLNNFYPREAKVQWKVDNALQSGNSQESVTEQDSKDSTYSLSSTLTLSKADYEKHKVYACEVTHQGLSSPVTKSFNRGEC
B10: A512/A468 humanized IgG4 Nullbody, kappa antibody (antibody, V domains shown)
VH: B8 VH with A9P, K12V, K38R, P41H, G44S, I48M, K67R, A72V, T74K, S77R
VL: B8 VL with I15L, L42Q, K50R
notes: Human IgG4null constant (S228P, L235E, R409K); also called hzR35B9(A56)-HV11 / hzR35B9-LV1a
B11: A515/A518 humanized IgG4 Nullbody, kappa antibody (antibody, V domains shown)
VH: B8 VH with K12V, K38R, P41H, I48M, S50Y, W57G, K67R, A68V, T74K, S77R
VL: B8 VL with I15L, L42Q, K50R, F98H
notes: also called hzR35B9(Y50A56G57)-HV7b / hzR35B9(H98)-LV1a
B12: A650/A468 humanized IgG4 Nullbody, kappa antibody (antibody)
heavy: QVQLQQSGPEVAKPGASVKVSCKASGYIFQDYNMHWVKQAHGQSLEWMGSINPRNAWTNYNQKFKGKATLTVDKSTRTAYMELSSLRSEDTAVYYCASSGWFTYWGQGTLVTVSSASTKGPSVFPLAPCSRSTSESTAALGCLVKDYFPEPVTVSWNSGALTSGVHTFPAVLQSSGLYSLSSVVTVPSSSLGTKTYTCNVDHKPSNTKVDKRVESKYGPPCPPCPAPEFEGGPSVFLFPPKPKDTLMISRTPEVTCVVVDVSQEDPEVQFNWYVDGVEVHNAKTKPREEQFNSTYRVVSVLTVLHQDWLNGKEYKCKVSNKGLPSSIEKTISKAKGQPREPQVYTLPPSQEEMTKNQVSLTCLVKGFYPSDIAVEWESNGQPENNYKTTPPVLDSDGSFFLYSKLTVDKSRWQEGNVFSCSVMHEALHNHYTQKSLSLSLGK
light: B9 light
B13: A648/A468 humanized IgG4 Nullbody, kappa antibody (antibody, V domains shown)
VH: QVQLQQSGPEVVKPGASVKVSCKASGYIFQDYNMHWVKQAHGQSLEWMGSINPRNAWTNYNDKFKGKATLTVDKSTRTAYMELSSLRSEDTAVYYCASSGWFTYWGQGTLVTVSS
VL: B8 VL with I15L, L42Q, K50R
B14: chimeric R35B9 (antibody, human IgG4 S228P, kappa)
heavy chain: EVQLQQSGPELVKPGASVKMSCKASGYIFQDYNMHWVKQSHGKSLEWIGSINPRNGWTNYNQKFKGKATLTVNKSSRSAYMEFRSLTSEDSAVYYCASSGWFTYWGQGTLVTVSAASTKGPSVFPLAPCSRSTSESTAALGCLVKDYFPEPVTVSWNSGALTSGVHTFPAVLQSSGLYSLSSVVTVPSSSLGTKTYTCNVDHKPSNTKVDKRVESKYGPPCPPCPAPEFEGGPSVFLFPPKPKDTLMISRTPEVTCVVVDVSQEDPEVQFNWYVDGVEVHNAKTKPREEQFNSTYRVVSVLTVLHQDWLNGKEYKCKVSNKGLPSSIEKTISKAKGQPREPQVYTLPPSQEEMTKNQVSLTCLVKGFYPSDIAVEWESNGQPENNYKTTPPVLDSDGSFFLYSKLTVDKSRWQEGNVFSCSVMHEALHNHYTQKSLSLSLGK
light chain: B9 light with S7T, S10T, P12S, T14A, L15I, Q42L, R50K, S68T, V88L, V109L
notes: It may be the same molecule as m27, R35B9 (A451/A452), but neither the sheet nor the text says so; also called mouse-human chimeric R35B9

What follows are binders tested against T1, mouse Fn14 (full length) on transfected 293F cells (mouse, UniProt Q9CR75 28-129) (assay: flow cytometry, hybridoma supernatant on 293F cells transfected with mouse Fn14, detected with anti-mouse IgG PE).
T1 sequence: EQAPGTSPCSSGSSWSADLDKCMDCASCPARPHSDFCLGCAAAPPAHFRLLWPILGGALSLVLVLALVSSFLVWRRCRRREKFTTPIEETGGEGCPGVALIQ
Description: FIG. 1 depicts binding of anti-Fn14 hybridoma supernatants to human and mouse Fn14 transfected cells. […] Hybridoma supernatant binding was detected using anti-mouse IgG PE.
Specifically, the binding activity of hybridoma culture supernatants or purified antibodies to Fn14-expressing cells was evaluated by flow cytometry (FCM). The cell lines evaluated by FCM were Fn14-transfected human embryonic kidney 293F cells (ThermoFisher, cat# R79007) and two cell lines endogenously expressing Fn14, human kidney-derived HK2 cells (ATCC, cat# CRL-2190) and rat kidney-derived NRK-52E cells (Japanese Collection of Research Bioresources Cell Bank (JCRB), cat# IF050480). For FCM analysis, Fn14-expressing cells were harvested using 0.25% trypsin-EDTA (Nacalai Tesque), washed with PBS, and resuspended in SM (Staining Medium: PBS containing 2% FBS, 1 mM EDTA, 0.05% sodium azide). Cells were then seeded in a 96-well plate at 1 ×10⁵ cells per well. Hybridoma supernatant or purified antibody (1 μg/mL final concentration) was added and the cells were incubated at 4° C. for 60 minutes. Cells were then washed with SM, resuspended in goat F(ab′)2 anti-mouse IgG-PE (Southern Biotech Inc.), diluted 1:500 in SM and incubated at 4° C. for 60 minutes. […] Fluorescence intensity was measured by FCM (BD Biosciences, FACS CantoII) and the data were analyzed using FlowJo software (Tomy Digital Biology Co., Ltd.).

Binder	binding result
B1	binds

Each binder was assayed against T2, His-SUMO-huFn14 (soluble human Fn14 aa 28-75 with N-terminal 6xHis-SUMO tag) (human) (assay: SPR Biacore; His-Sumo-huFn14 0.111-9 nM).
T2 construct: also called His-SUMO-Fn14; His-SUMO-hFn14
T2 sequence (chain, as listed by the source limits assumed): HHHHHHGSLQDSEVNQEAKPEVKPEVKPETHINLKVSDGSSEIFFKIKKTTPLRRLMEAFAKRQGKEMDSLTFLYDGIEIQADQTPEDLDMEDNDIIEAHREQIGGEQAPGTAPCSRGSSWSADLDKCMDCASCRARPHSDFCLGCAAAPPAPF

Binder	Kd [pM]	koff [s⁻¹]	kon [M⁻¹ s⁻¹]
B2	132	0.000994	7.52e+06
B3	71.4	0.000354	4.96e+06

The binders below were run against T3, human Fn14 (full length) on cells (human, UniProt Q9NP84 28-129) (assay: cell-based or functional assay).
T3 sequence: T1 sequence with S7A, S11R, P29R, H47P, V62T, L63F, A66G, V68L, S70G, G97A

Binder	ICAM-1 MFI on HRMC, 250 ng/mL rhTWEAK, mAb 0.1 µg/mL [MFI]
B4	11800
B5	5110
B6	5480
B7	6430

What follows are binders tested against T2, His-SUMO-huFn14 (soluble human Fn14 aa …) (assay: SPR single-cycle kinetics; mAb captured by anti-human Fc, His-Sumo-Fn14 analyte; average of three runs).
Description: (§1) Alternatively, using a method referred to as “single cycle kinetics,” the His-Sumo-Fn14 was injected with increasing concentrations in a single cycle, the surface not being regenerated between injections. Specifically, anti-human Fc specific antibodies were immobilized on a CM5 sensor chip (cat# BR100012, GE Healthcare Life Sciences, Pittsburgh, Pennsylvania) by an amine coupling chemistry. Thereafter, humanized anti-Fn14 antibodies were captured at approximately 200 RUs, followed by injections of increasing concentrations of recombinant human His-Sumo-Fn14 protein. The association time was 120 seconds, and the final dissociation time was 900 seconds. At the end of the analyte injections, the surface was regenerated with 3M MgCl₂ for 30s. The raw data were double referenced by subtraction of the signals from a reference flow cell without immobilized ligand and a buffer blank. The sensorgram corresponding to each concentration was obtained (see FIG. 6B).

Binder	Kd [pM]
B8	358
B9	256
B10	206
B11	470
B12	278
B13	222

What follows are binders tested against T2, His-SUMO-huFn14 (soluble human Fn14 aa …) (assay: SPR single-cycle kinetics; mAb captured by anti-human Fc, His-Sumo-Fn14 analyte; 1:1 fit).
Description: as §1

Binder	Kd	koff	kon
B8	374 pM and 347 pM and 354 pM	0.000804 s⁻¹ and 0.000812 s⁻¹ and 0.000799 s⁻¹	2.2e+06 M⁻¹ s⁻¹ and 2.3e+06 M⁻¹ s⁻¹ (2×)
B9	262 pM and 249 pM and 257 pM	0.000756 s⁻¹ and 0.000773 s⁻¹ and 0.000764 s⁻¹	2.89e+06 M⁻¹ s⁻¹ and 3.11e+06 M⁻¹ s⁻¹ and 2.97e+06 M⁻¹ s⁻¹
B10	226 pM and 194 pM and 197 pM	0.000679 s⁻¹ and 0.000664 s⁻¹ and 0.000652 s⁻¹	3e+06 M⁻¹ s⁻¹ and 3.43e+06 M⁻¹ s⁻¹ and 3.31e+06 M⁻¹ s⁻¹
B11	461 pM and 473 pM and 477 pM	0.00144 s⁻¹ and 0.00154 s⁻¹ and 0.0015 s⁻¹	3.2e+06 M⁻¹ s⁻¹ (2×) and 3.1e+06 M⁻¹ s⁻¹
B12	264 pM and 287 pM and 282 pM	0.000871 s⁻¹ and 0.000843 s⁻¹ and 0.000825 s⁻¹	3.3e+06 M⁻¹ s⁻¹ and 2.9e+06 M⁻¹ s⁻¹ (2×)
B13	0.191 nM and 0.237 nM (2×)	0.000531 s⁻¹ and 0.000756 s⁻¹ and 0.000742 s⁻¹	2.78e+06 M⁻¹ s⁻¹ and 3.19e+06 M⁻¹ s⁻¹ and 3.13e+06 M⁻¹ s⁻¹

These binders were tested against T3, human Fn14 (full length) on cells (assay: flow cytometry blocking assay on HRMC: antibody for 30 min, then recombinant human TWEAK at 250 ng/mL for 45 min; bound TWEAK detected with biotinylated goat anti-human TWEAK and streptavidin-PE; blocked ligand: TWEAK).
Description: FIG. 25 depicts that humanized anti-Fn14 antibodies blocked TWEAK binding to Fn14 expressed on cells. HRMC were incubated with individual antibodies at various concentrations for 30 minutes followed by incubation with recombinant human TWEAK (250 ng/mL) for 45 minutes. Binding of TWEAK to HRMC cells was detected with biotinylated goat-anti-human TWEAK followed by streptavidin-PE. Stained cells were acquired on a Fortessa. % TWEAK blocking was calculated using the following formula: 100-(Geometric mean fluorescence intensity of sample—Geometric mean fluorescence intensity of cells without TWEAK)/(Geometric mean fluorescence intensity-TWEAK alone with no antibody—Geometric mean fluorescence intensity of cells without TWEAK)*100.
HRMC cells were incubated with individual antibodies at various concentrations (0.015625-1 ng/mL) for 30 minutes at room temperature. Recombinant human TWEAK (R&D Systems, Cat# 1090-TW/CF) was then added to the cells and incubated for 45 minutes at room temperature. Binding of TWEAK to HRMC cells was detected with a biotinylated goat-anti-human TWEAK (R&D Systems, Cat# BAF1090) followed by streptavidin-PE (Biolegend, Cat# 405204). Stained cells were acquired on a Fortessa. % TWEAK blocking was calculated using the following formula: 100-(Geometric mean fluorescence intensity of sample—Geometric mean fluorescence intensity of cells without TWEAK)/(Geometric mean fluorescence intensity—TWEAK alone with no antibody—Geometric mean fluorescence intensity of cells without TWEAK)*100.

Binder	binding result	IC50 (read off the curve) [µg/mL]
B8	binds	–
B14	–	~0.2
B10	–	~0.3
B11	binds	–

These binders were tested against T4, rat Fn14, endogenous on NRK-52E cells (rat, UniProt Q9CR75 28-129 (mouse entry)) (assay: flow cytometry on NRK-52E cells (endogenous rat Fn14), purified antibody 1 µg/mL, detected with anti-mouse IgG PE).
T4 construct: Endogenous protein of rat kidney cells; also called NRK52E-A15/Luc cells
Description: Primary antibodies were used at a concentration of 1 μg/mL and binding was detected using anti-mouse IgG PE.
Specifically, the binding activity of hybridoma culture supernatants or purified antibodies to Fn14-expressing cells was evaluated by flow cytometry (FCM). The cell lines evaluated by FCM were Fn14-transfected human embryonic kidney 293F cells (ThermoFisher, cat# R79007) and two cell lines endogenously expressing Fn14, human kidney-derived HK2 cells (ATCC, cat# CRL-2190) and rat kidney-derived NRK-52E cells (Japanese Collection of Research Bioresources Cell Bank (JCRB), cat# IF050480). For FCM analysis, Fn14-expressing cells were harvested using 0.25% trypsin-EDTA (Nacalai Tesque), washed with PBS, and resuspended in SM (Staining Medium: PBS containing 2% FBS, 1 mM EDTA, 0.05% sodium azide). Cells were then seeded in a 96-well plate at 1 ×10⁵ cells per well. Hybridoma supernatant or purified antibody (1 μg/mL final concentration) was added and the cells were incubated at 4° C. for 60 minutes. Cells were then washed with SM, resuspended in goat F(ab′)2 anti-mouse IgG-PE (Southern Biotech Inc.), diluted 1:500 in SM and incubated at 4° C. for 60 minutes. Cells were washed with SM and finally resuspended in 50 μL of SM. Fluorescence intensity was measured by FCM (BD Biosciences, FACS CantoII) and the data were analyzed using FlowJo software (Tomy Digital Biology Co., Ltd.).

T4 sequence (Q9CR75 other isoform, or with tags, fused parts or gaps limits assumed): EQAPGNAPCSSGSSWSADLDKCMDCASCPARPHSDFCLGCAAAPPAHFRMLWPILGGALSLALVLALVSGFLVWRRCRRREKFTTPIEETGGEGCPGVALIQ

Binder	binding result
B1	binds
